The values below come from publication PMC4646087 (Journal of molecular biology, 2015).

Like-named read-outs stand apart in the source and are kept apart here.

As usually defined, the Kd is a measure of binding affinity in units of concentration. The low end stands for higher affinity, the high end for lower affinity. One may read the stoichiometry N as a count of units in the complex or per binding partner.

Assay [1] deals with T1, SR-TOG3 construct of human CLASP2 (human).
T1 sequence (O75122 whole entry, looked up): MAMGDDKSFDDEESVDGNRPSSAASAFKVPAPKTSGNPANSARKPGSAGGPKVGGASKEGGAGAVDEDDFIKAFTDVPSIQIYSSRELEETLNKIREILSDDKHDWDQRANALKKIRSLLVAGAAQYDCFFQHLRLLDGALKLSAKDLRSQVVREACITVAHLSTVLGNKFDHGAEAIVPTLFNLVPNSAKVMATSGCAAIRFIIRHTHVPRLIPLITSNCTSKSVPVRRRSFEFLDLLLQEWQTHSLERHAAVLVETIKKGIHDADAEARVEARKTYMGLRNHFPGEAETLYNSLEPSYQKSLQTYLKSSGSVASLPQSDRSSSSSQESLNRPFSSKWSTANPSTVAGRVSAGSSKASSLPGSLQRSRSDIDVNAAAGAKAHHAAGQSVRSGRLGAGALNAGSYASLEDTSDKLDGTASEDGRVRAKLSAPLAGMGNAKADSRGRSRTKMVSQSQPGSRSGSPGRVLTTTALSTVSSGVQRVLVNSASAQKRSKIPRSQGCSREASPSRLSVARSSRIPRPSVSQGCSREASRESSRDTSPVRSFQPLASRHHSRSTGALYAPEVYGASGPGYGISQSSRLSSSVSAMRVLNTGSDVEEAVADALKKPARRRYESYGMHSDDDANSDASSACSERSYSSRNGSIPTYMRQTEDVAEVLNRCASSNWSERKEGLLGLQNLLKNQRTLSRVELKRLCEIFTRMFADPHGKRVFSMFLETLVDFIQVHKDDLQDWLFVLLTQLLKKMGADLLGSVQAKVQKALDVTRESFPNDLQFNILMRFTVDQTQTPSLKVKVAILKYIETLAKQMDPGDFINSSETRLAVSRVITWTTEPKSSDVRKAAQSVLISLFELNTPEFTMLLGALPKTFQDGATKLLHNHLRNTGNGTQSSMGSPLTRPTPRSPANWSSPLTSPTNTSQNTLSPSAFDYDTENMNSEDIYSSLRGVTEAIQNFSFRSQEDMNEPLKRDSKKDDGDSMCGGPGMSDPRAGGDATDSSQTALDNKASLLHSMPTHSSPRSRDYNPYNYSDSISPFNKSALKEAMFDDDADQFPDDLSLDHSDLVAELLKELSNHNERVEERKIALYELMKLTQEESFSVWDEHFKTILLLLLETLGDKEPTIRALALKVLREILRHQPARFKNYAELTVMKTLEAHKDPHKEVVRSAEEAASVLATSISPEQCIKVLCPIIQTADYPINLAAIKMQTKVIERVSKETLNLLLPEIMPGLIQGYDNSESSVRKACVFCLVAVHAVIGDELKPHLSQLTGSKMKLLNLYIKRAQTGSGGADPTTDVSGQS
The experiment in a line: ITC. (In general: In ITC the heat of successive injections is recorded.)

Assay [2] concerns the target T2, TOG2-SR construct of human CLASP2 (human).
T2 sequence (O75122 whole entry, looked up): T1 sequence (O75122 whole entry, looked up)
The experiment in a line: ITC.

In assay [3] the target is αβ-tubulin heterodimer isolated from porcine brain (porcine) (UniProt P02550). The experiment in a line: co-sedimentation.
Assay [4] has as its target T3, SR region of human CLASP2 (residues 311-648) (human, UniProt O75122 311-648).
T3 sequence (looked up): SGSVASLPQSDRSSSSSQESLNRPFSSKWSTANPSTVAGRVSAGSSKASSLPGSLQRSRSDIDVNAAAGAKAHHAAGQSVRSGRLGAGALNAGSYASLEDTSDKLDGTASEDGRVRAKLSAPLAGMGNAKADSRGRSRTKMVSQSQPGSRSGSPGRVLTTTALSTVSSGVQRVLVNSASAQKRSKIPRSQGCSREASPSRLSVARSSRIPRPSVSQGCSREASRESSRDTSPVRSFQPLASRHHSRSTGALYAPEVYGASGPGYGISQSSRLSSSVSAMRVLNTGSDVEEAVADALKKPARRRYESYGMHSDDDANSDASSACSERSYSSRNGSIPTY
The experiment in a line: ITC.

The target in assay [5] is T3, SR region of human CLASP2 (residues …). The experiment in a line: ITC. The source holds these as a separate data set.

As for “EB1 (dimeric) (from UniProt Q15691 1-268) (natural protein)”, in assay [1], the dissociation constant (Kd) worked out at 1200 nM and the stoichiometry N (CLASP2 versus EB1 dimer) is 2. In assay [2], this molecule registered a Kd of 2000 nM and a stoichiometry N (CLASP2 versus EB1 dimer) of 2.2.

B1: human CLASP2 TOG3 domain (hC2-TOG3; residues 649-881) (domain or fragment)
chain: MRQTEDVAEVLNRCASSNWSERKEGLLGLQNLLKNQRTLSRVELKRLCEIFTRMFADPHGKRVFSMFLETLVDFIQVHKDDLQDWLFVLLTQLLKKMGADLLGSVQAKVQKALDVTRESFPNDLQFNILMRFTVDQTQTPSLKVKVAILKYIETLAKQMDPGDFINSSETRLAVSRVITWTTEPKSSDVRKAAQSVLISLFELNTPEFTMLLGALPKTFQDGATKLLHNHLRN
In assay [3], B1 came in with a fold affinity relative to hC2-TOG2 of 3 fold.

B2: EB1 (dimeric) (natural protein, UniProt Q15691 1-268, looked up)
chain: MAVNVYSTSVTSDNLSRHDMLAWINESLQLNLTKIEQLCSGAAYCQFMDMLFPGSIALKKVKFQAKLEHEYIQNFKILQAGFKRMGVDKIIPVDKLVKGKFQDNFEFVQWFKKFFDANYDGKDYDPVAARQGQETAVAPSLVAPALNKPKKPLTSSSAAPQRPISTQRTAAAPKAGPGVVRKNPGVGNGDDEAAELMQQVNVLKLTVEDLEKERDFYFGKLRNIELICQENEGENDPVLQRIVDILYATDEGFVIPDEGGPQEEQEEY
For B2, in assay [4], binding was characterised by a dissociation constant (Kd) of 3000 ± 400 nM and the “stoichiometry N” value was found to be 2 CLASP2 versus EB1 dimer. Also, in assay [5], the Kd was found to be 2000 ± 400 nM and the “stoichiometry N” value amounted to 2 CLASP2 versus EB1 dimer.
